Like-named read-outs stand apart in the source and are kept apart here. No end group written: not given here.
How the values were obtained:
[1] = tested on: NF-κB activity (LMP-1) in EBV positive B721 cells; details: read-out: IC50, inhibition of B721 cell NF-κB activity; cited from earlier work
TMD5 (coumarin-labelled) = TMD5 (coumarin-labelled) (Epstein-Barr virus, UniProt P03230); test: FRET assay; format: binding
[2] = tested on: TMD5/TMD5 interaction (TMD5–ToxR); test: Dominant-negative ToxR assay in bacterial membranes; format: cell-based, Epstein–Barr virus; details: co-expressed as ToxR* fusion with TMD5–ToxR in E. coli FHK12; result in words
[3] = biological target: coumarin-labelled LMP-1 transmembrane domain 5 (TMD5) peptide (Epstein-Barr virus); test: FRET or BRET
[4] = biological target: coumarin-labelled LMP-1 transmembrane domain 5 (TMD5) peptide (Epstein-Barr virus); test: FRET or BRET; remark: listed apart in the source
[5] = biological target: coumarin-labelled LMP-1 transmembrane domain 5 (TMD5) peptide (Epstein-Barr virus); test: other fluorescence titration

N=C(N)c1ccc(C=Cc2ccc(C(=N)N)cc2O)cc1 [NSC259242]
IC50 [1]: 29.6 ± 6.6 µM

KKKKWWKLWYFLVWFLDLIILILLLWWKKKK [anti-TMD5]
Kd (TMD5 (coumarin-labelled)): 0.04 ± 0.0067 µM

KKKK-VFLWLWLIWIFIDWKLWLLYWLL-KKKK [anti-TMD5 scramble]
quenching of TMD5-coumarin fluorescence and FRET signal compared to anti-TMD5 (TMD5 (coumarin-labelled); 1.0 mM C14 betaine micelles, 20 mM HEPES, pH 7.4, result in words): much less quenching of TMD5-coumarin fluorescence and weaker FRET signal from FITC emission
effect on TMD5 Miller unit [2]: did not inhibit the TMD5 Miller unit

WWKLWYFLVWFLDLIILILLLWW (designed binder, also: FITC label, position not given here) [FITC-tagged anti-TMD5 peptide]
Kd [3]: 40 µM
stoichiometry N [3]: 0.44
Kd [4]: 0.0678 µM
stoichiometry N [4]: 0.53

WWKLWYFLVWFLDLIILILLLWW (designed binder) [anti-TMD5 peptide (unlabelled)]
EC50 [5]: 3.3 µM

— PMC6761861 (Chemical Science, 2019)
